We go through eight molecules from patent US20170008943A1 (Novo Nordisk, published 2017).

*1 amine or outer side, *2 acyl side, *3 side chain or, on linkers, in order; H or OH if unused. Side-chain parts run from the residue outwards. [ ]: non-standard residue; d: D form. The star is where a group is joined. γGlu = O=C(O)[C@H](CCC(=O)[*:2])N[*:1]; Desaminohistidyl = O=C(CCc1c[nH]cn1)*; Aib = CC(C)(N)C(=O)O

As a reminder, the IC50 is the concentration needed to halve the response being measured. A low value points to greater potency in that assay.

The chains are these.
B1: N^ε24-[2-[[(4S)-4-[[(4S)-4-[[(4S)-4-[[(4S)-4-acetamido-4-carboxybutanoyl]amino]-4-carboxybutanoyl]amino]-4-carboxybutanoyl]amino]-4-carboxybutanoyl]amino]acetyl … (peptide)
peptide: [Desaminohistidyl]SHGTFTSDYSKYLESRRAQEFVK([Gly-γGlu-γGlu-γGlu-γGlu-Ac])WLLST-OH
SMILES: CC(=O)N[C@@H](CCC(=O)N[C@@H](CCC(=O)N[C@@H](CCC(=O)N[C@@H](CCC(=O)NCC(=O)NCCCC[C@H](NC(=O)[C@@H](NC(=O)[C@H](Cc1ccccc1)NC(=O)[C@H](CCC(=O)O)NC(=O)[C@H](CCC(N)=O)NC(=O)[C@H](C)NC(=O)[C@H](CCCNC(=N)N)NC(=O)[C@H](CCCNC(=N)N)NC(=O)[C@H](CO)NC(=O)[C@H](CCC(=O)O)NC(=O)[C@H](CC(C)C)NC(=O)[C@H](Cc1ccc(O)cc1)NC(=O)[C@H](CCCCN)NC(=O)[C@H](CO)NC(=O)[C@H](Cc1ccc(O)cc1)NC(=O)[C@H](CC(=O)O)NC(=O)[C@H](CO)NC(=O)[C@@H](NC(=O)[C@H](Cc1ccccc1)NC(=O)[C@@H](NC(=O)CNC(=O)[C@H](Cc1c[nH]cn1)NC(=O)[C@H](CO)NC(=O)CCc1c[nH]cn1)[C@@H](C)O)[C@@H](C)O)C(C)C)C(=O)N[C@@H](Cc1c[nH]c2ccccc12)C(=O)N[C@@H](CC(C)C)C(=O)N[C@@H](CC(C)C)C(=O)N[C@@H](CO)C(=O)N[C@H](C(=O)O)[C@@H](C)O)C(=O)O)C(=O)O)C(=O)O)C(=O)O
notes: Imp written X under substitutions
B2: N^α([Imp1, His3, Glu15, Glu21, Leu27, … (peptide)
peptide: [Desaminohistidyl]SHGTFTSDYSKYLESRRAQEFVQWLLSTK([γGlu-γGlu-γGlu-γGlu-Ac])-OH
SMILES: CC(=O)N[C@@H](CCC(=O)N[C@@H](CCC(=O)N[C@@H](CCC(=O)N[C@@H](CCC(=O)NCCCC[C@H](NC(=O)[C@@H](NC(=O)[C@H](CO)NC(=O)[C@H](CC(C)C)NC(=O)[C@H](CC(C)C)NC(=O)[C@H](Cc1c[nH]c2ccccc12)NC(=O)[C@H](CCC(N)=O)NC(=O)[C@@H](NC(=O)[C@H](Cc1ccccc1)NC(=O)[C@H](CCC(=O)O)NC(=O)[C@H](CCC(N)=O)NC(=O)[C@H](C)NC(=O)[C@H](CCCNC(=N)N)NC(=O)[C@H](CCCNC(=N)N)NC(=O)[C@H](CO)NC(=O)[C@H](CCC(=O)O)NC(=O)[C@H](CC(C)C)NC(=O)[C@H](Cc1ccc(O)cc1)NC(=O)[C@H](CCCCN)NC(=O)[C@H](CO)NC(=O)[C@H](Cc1ccc(O)cc1)NC(=O)[C@H](CC(=O)O)NC(=O)[C@H](CO)NC(=O)[C@@H](NC(=O)[C@H](Cc1ccccc1)NC(=O)[C@@H](NC(=O)CNC(=O)[C@H](Cc1c[nH]cn1)NC(=O)[C@H](CO)NC(=O)CCc1c[nH]cn1)[C@@H](C)O)[C@@H](C)O)C(C)C)[C@@H](C)O)C(=O)O)C(=O)O)C(=O)O)C(=O)O)C(=O)O
notes: as for B1
B3: N^ε24-[(4S)-4-[[(4S)-4-[[(4S)-4-acetamido-4-carboxybutanoyl]amino]-4-carboxybutanoyl]amino]-4-carboxybutanoyl]-[Imp1, His3, Glu15, Glu21, Lys24, Leu27, … (peptide)
peptide: [Desaminohistidyl]SHGTFTSDYSKYLESRRAQEFVK([γGlu-γGlu-γGlu-Ac])WLLST-OH
SMILES: CC(=O)N[C@@H](CCC(=O)N[C@@H](CCC(=O)N[C@@H](CCC(=O)NCCCC[C@H](NC(=O)[C@@H](NC(=O)[C@H](Cc1ccccc1)NC(=O)[C@H](CCC(=O)O)NC(=O)[C@H](CCC(N)=O)NC(=O)[C@H](C)NC(=O)[C@H](CCCNC(=N)N)NC(=O)[C@H](CCCNC(=N)N)NC(=O)[C@H](CO)NC(=O)[C@H](CCC(=O)O)NC(=O)[C@H](CC(C)C)NC(=O)[C@H](Cc1ccc(O)cc1)NC(=O)[C@H](CCCCN)NC(=O)[C@H](CO)NC(=O)[C@H](Cc1ccc(O)cc1)NC(=O)[C@H](CC(=O)O)NC(=O)[C@H](CO)NC(=O)[C@@H](NC(=O)[C@H](Cc1ccccc1)NC(=O)[C@@H](NC(=O)CNC(=O)[C@H](Cc1c[nH]cn1)NC(=O)[C@H](CO)NC(=O)CCc1c[nH]cn1)[C@@H](C)O)[C@@H](C)O)C(C)C)C(=O)N[C@@H](Cc1c[nH]c2ccccc12)C(=O)N[C@@H](CC(C)C)C(=O)N[C@@H](CC(C)C)C(=O)N[C@@H](CO)C(=O)N[C@H](C(=O)O)[C@@H](C)O)C(=O)O)C(=O)O)C(=O)O
notes: as for B1
B4: N^ε28-[(4S)-4-[[(4S)-4-[[(4S)-4-[[(4S)-4-acetamido-4-carboxybutanoyl]amino]-4-carboxybutanoyl]amino]-4-carboxybutanoyl]amino]-4-carboxybutanoyl]-[Imp1, His3, … (peptide)
peptide: [Desaminohistidyl]SHGTFTSDYSKYLESRRAQEFVQWLLK([γGlu-γGlu-γGlu-γGlu-Ac])T-OH
SMILES: CC(=O)N[C@@H](CCC(=O)N[C@@H](CCC(=O)N[C@@H](CCC(=O)N[C@@H](CCC(=O)NCCCC[C@H](NC(=O)[C@H](CC(C)C)NC(=O)[C@H](CC(C)C)NC(=O)[C@H](Cc1c[nH]c2ccccc12)NC(=O)[C@H](CCC(N)=O)NC(=O)[C@@H](NC(=O)[C@H](Cc1ccccc1)NC(=O)[C@H](CCC(=O)O)NC(=O)[C@H](CCC(N)=O)NC(=O)[C@H](C)NC(=O)[C@H](CCCNC(=N)N)NC(=O)[C@H](CCCNC(=N)N)NC(=O)[C@H](CO)NC(=O)[C@H](CCC(=O)O)NC(=O)[C@H](CC(C)C)NC(=O)[C@H](Cc1ccc(O)cc1)NC(=O)[C@H](CCCCN)NC(=O)[C@H](CO)NC(=O)[C@H](Cc1ccc(O)cc1)NC(=O)[C@H](CC(=O)O)NC(=O)[C@H](CO)NC(=O)[C@@H](NC(=O)[C@H](Cc1ccccc1)NC(=O)[C@@H](NC(=O)CNC(=O)[C@H](Cc1c[nH]cn1)NC(=O)[C@H](CO)NC(=O)CCc1c[nH]cn1)[C@@H](C)O)[C@@H](C)O)C(C)C)C(=O)N[C@H](C(=O)O)[C@@H](C)O)C(=O)O)C(=O)O)C(=O)O)C(=O)O
notes: as for B1
B5: Nε^21-[(4S)-4-[[(4S)-4-[[(4S)-4-[[(4S)-4-acetamido-4-carboxybutanoyl]amino]-4-carboxybutanoyl]amino]-4-carboxybutanoyl]amino]-4-carboxybutanoyl]-[Imp1, His3, … (peptide)
peptide: [Desaminohistidyl]SHGTFTSDYSKYLESRRAQK([γGlu-γGlu-γGlu-γGlu-Ac])FVQWLLST-OH
SMILES: CC(=O)N[C@@H](CCC(=O)N[C@@H](CCC(=O)N[C@@H](CCC(=O)N[C@@H](CCC(=O)NCCCC[C@H](NC(=O)[C@H](CCC(N)=O)NC(=O)[C@H](C)NC(=O)[C@H](CCCNC(=N)N)NC(=O)[C@H](CCCNC(=N)N)NC(=O)[C@H](CO)NC(=O)[C@H](CCC(=O)O)NC(=O)[C@H](CC(C)C)NC(=O)[C@H](Cc1ccc(O)cc1)NC(=O)[C@H](CCCCN)NC(=O)[C@H](CO)NC(=O)[C@H](Cc1ccc(O)cc1)NC(=O)[C@H](CC(=O)O)NC(=O)[C@H](CO)NC(=O)[C@@H](NC(=O)[C@H](Cc1ccccc1)NC(=O)[C@@H](NC(=O)CNC(=O)[C@H](Cc1c[nH]cn1)NC(=O)[C@H](CO)NC(=O)CCc1c[nH]cn1)[C@@H](C)O)[C@@H](C)O)C(=O)N[C@@H](Cc1ccccc1)C(=O)N[C@H](C(=O)N[C@@H](CCC(N)=O)C(=O)N[C@@H](Cc1c[nH]c2ccccc12)C(=O)N[C@@H](CC(C)C)C(=O)N[C@@H](CC(C)C)C(=O)N[C@@H](CO)C(=O)N[C@H](C(=O)O)[C@@H](C)O)C(C)C)C(=O)O)C(=O)O)C(=O)O)C(=O)O
notes: as for B1
B6: N^ε29-[(4S)-4-[[(4S)-4-[[(4S)-4-[[(4S)-4-acetamido-4-carboxybutanoyl]amino]-4-carboxybutanoyl]amino]-4-carboxybutanoyl]amino]-4-carboxybutanoyl]-[Imp1, His3, … (peptide)
peptide: [Desaminohistidyl]SHGTFTSDYSKYLESRRAQEFVQWLLSK([γGlu-γGlu-γGlu-γGlu-Ac])-OH
SMILES: CC(=O)N[C@@H](CCC(=O)N[C@@H](CCC(=O)N[C@@H](CCC(=O)N[C@@H](CCC(=O)NCCCC[C@H](NC(=O)[C@H](CO)NC(=O)[C@H](CC(C)C)NC(=O)[C@H](CC(C)C)NC(=O)[C@H](Cc1c[nH]c2ccccc12)NC(=O)[C@H](CCC(N)=O)NC(=O)[C@@H](NC(=O)[C@H](Cc1ccccc1)NC(=O)[C@H](CCC(=O)O)NC(=O)[C@H](CCC(N)=O)NC(=O)[C@H](C)NC(=O)[C@H](CCCNC(=N)N)NC(=O)[C@H](CCCNC(=N)N)NC(=O)[C@H](CO)NC(=O)[C@H](CCC(=O)O)NC(=O)[C@H](CC(C)C)NC(=O)[C@H](Cc1ccc(O)cc1)NC(=O)[C@H](CCCCN)NC(=O)[C@H](CO)NC(=O)[C@H](Cc1ccc(O)cc1)NC(=O)[C@H](CC(=O)O)NC(=O)[C@H](CO)NC(=O)[C@@H](NC(=O)[C@H](Cc1ccccc1)NC(=O)[C@@H](NC(=O)CNC(=O)[C@H](Cc1c[nH]cn1)NC(=O)[C@H](CO)NC(=O)CCc1c[nH]cn1)[C@@H](C)O)[C@@H](C)O)C(C)C)C(=O)O)C(=O)O)C(=O)O)C(=O)O)C(=O)O
notes: as for B1
B7: N^ε24-[(4S)-4-[[(4S)-4-[[(4S)-4-[[(4S)-4-[[(4S)-4-acetamido-4-carboxybutanoyl]amino]-4-carboxybutanoyl]amino]-4-carboxybutanoyl]amino]-4-carboxybutanoyl]amino]- … (peptide)
peptide: XSHGTFTSDYSKYLESRRAQEFVKWLLST
modifications: Imp (imidazopropionyl, des-amino-histidine) at position 1; N-epsilon of Lys24 acylated with acetyl-(gamma-Glu)5 substituent as in the name; C-terminal carboxylic acid
notes: as for B1
B8: N^ε24-[(4S)-4-[[(4S)-4-[[(4S)-4-[[(4S)-4-acetamido-4-carboxybutanoyl]amino]-4-carboxybutanoyl]amino]-4-carboxybutanoyl]amino]-4-carboxybutanoyl]-[Imp1, His3, … (peptide)
peptide: [Desaminohistidyl]SHGTFTSDYSKYLD[Aib]RRAQDFVK([γGlu-γGlu-γGlu-γGlu-Ac])WLLST-OH
SMILES: CC(=O)N[C@@H](CCC(=O)N[C@@H](CCC(=O)N[C@@H](CCC(=O)N[C@@H](CCC(=O)NCCCC[C@H](NC(=O)[C@@H](NC(=O)[C@H](Cc1ccccc1)NC(=O)[C@H](CC(=O)O)NC(=O)[C@H](CCC(N)=O)NC(=O)[C@H](C)NC(=O)[C@H](CCCNC(=N)N)NC(=O)[C@H](CCCNC(=N)N)NC(=O)C(C)(C)NC(=O)[C@H](CC(=O)O)NC(=O)[C@H](CC(C)C)NC(=O)[C@H](Cc1ccc(O)cc1)NC(=O)[C@H](CCCCN)NC(=O)[C@H](CO)NC(=O)[C@H](Cc1ccc(O)cc1)NC(=O)[C@H](CC(=O)O)NC(=O)[C@H](CO)NC(=O)[C@@H](NC(=O)[C@H](Cc1ccccc1)NC(=O)[C@@H](NC(=O)CNC(=O)[C@H](Cc1c[nH]cn1)NC(=O)[C@H](CO)NC(=O)CCc1c[nH]cn1)[C@@H](C)O)[C@@H](C)O)C(C)C)C(=O)N[C@@H](Cc1c[nH]c2ccccc12)C(=O)N[C@@H](CC(C)C)C(=O)N[C@@H](CC(C)C)C(=O)N[C@@H](CO)C(=O)N[C@H](C(=O)O)[C@@H](C)O)C(=O)O)C(=O)O)C(=O)O)C(=O)O
notes: Imp and Aib written X under substitutions

The target of the first assay is T1, human glucagon receptor (human, UniProt P47871 26-477). Nature of the assay: cell-based or functional assay.
T1 sequence (P47871 26-477): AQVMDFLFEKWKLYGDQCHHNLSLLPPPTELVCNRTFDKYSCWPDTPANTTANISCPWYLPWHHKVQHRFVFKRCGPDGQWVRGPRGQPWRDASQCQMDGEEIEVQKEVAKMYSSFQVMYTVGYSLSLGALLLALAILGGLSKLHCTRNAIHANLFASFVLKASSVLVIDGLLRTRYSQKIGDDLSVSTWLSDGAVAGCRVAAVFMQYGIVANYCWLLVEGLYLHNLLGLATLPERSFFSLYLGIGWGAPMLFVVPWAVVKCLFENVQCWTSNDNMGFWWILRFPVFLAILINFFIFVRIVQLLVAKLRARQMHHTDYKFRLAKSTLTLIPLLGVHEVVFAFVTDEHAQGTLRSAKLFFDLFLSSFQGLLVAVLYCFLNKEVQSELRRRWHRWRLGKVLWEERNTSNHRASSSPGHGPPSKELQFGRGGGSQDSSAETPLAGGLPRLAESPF
As for B1, the “EC50 hGlucagonR (pM), CRE luciferase reporter in BHK cells” value (from here on “EC50 hGlucagonR (pM)”) worked out at 9.9 pM.

As to B2, the “EC50 hGlucagonR (pM)” value came to 4 pM.

On to B3, for which the “EC50 hGlucagonR (pM)” value was 6 pM.

As to B4, the “EC50 hGlucagonR (pM)” value was determined as 6 pM.

As for B5, the “EC50 hGlucagonR (pM)” value was found to be 17 pM.

For the molecule B6, the “EC50 hGlucagonR (pM)” value worked out at 4 pM.

With B7, the “EC50 hGlucagonR (pM)” value was found to be 6 pM.

B8: the “EC50 hGlucagonR (pM)” value amounted to 2 pM.

For another assay, the target named is T1, human glucagon receptor. The assay is described as follows: displacement of 125I-glucagon from BHK membranes with human glucagon receptor (SPA), Assay (II)(b). In general terms: Displacement assays read how much labelled ligand stays bound in the presence of the test substance.
The molecule B1 displayed an IC50 of 2.5 nM.

Consider B2, for which the IC50 was 2 nM.

Regarding B3, the IC50 was 1.5 nM.

B4 displayed an IC50 of 2.6 nM.

On to B5, for which the IC50 is 5.2 nM.

B6 gave an IC50 of 5.1 nM.

B7 gave an IC50 of 2.7 nM.

On to B8, for which the IC50 is 0.3 nM.
